Experimental data from publication PMC7607744 (2020).
No end group written: not given here.

Molecular target: T1, CD138pep (also: FITC-labeled, site not given here)
T1 chain: RKRLQVQLSIRT-NH2
Experiment: flow cytometry binding to H929 cells

- Kd: 3.1 µM
B1: CD138 (Syndecan-1) (protein)
chain: QIVATNLPPEDQDGSGDDSDNFSGSGAGALQDITLSQQTPSTWKDTQLLTAIPTSPEPTGLEATAASTSTLPAGEGPKEGEAVVLPEVEPGLTAREQEATPRPRETTQLPTTHLASTTTATTAQEPATSHPHRDMQPGHHETSTPAGPSQADLHTPHTEDGGPSATERAAEDGASSQLPAAEGSGEQDFTFETSGENTAVVAVEPDRRNQSPVDQGATGASQGLLDRKEVLG
